Laboratory results as given in patent US20120258099A1.
Positions count from the first letter of the chain named. Values belong to the binder of their own block, whether it stands above or below them. Ends that are not written are not given here. GST = glutathione S-transferase tag encoded by vector pGEX-5X2

Legend:
[1] = target: MBP-Tgat (aa 1-255) (UniProt O75962); assay: FRET mant-GTP nucleotide exchange kinetics; kobs against GST-TRIP peptide concentration (up to 100 µM), hyperbolic fit; RhoA 1 µM, Tgat 0.5 µM
[2] = target: MBP-Tgat (aa 1-255) (UniProt O75962); assay: cell-based or functional assay

Ki [1]: 89 µM
B1: GST-TRIPα (peptide, not shown: a dimerising Fc or GST)
chain: {GST}-AREGADGAICGYNLATLVMLGPSERVFCPLCEPCSSDIYELM
modifications: cysteine pairing not given here; also: fused to GST, GST carrier and linker letters not given here

efficiency at inhibiting the exchange activity of Tgat, against TRIPα [2]: 15 fold
Ki [1]: 7.4 µM
B2: GST-TRIPE32G (peptide, not shown: a dimerising Fc or GST; large carriers; small tags and cut ends)
peptide: AREGADGAICGYNLATLVMLGPSERVFCPLCGPCSSDIYELM
modifications: not fully specified (N-terminus); cysteine pairing not given here; also: fused to GST, GST carrier and linker letters not given here

efficiency at inhibiting the exchange activity of Tgat, against TRIPα [2]: 15 fold
Ki [1]: 5.1 µM
B3: GST-TRIPT16M/L17S (peptide, not shown: a dimerising Fc or GST; large carriers; small tags and cut ends)
peptide: B2 peptide with T16M, L17S, G32E
modifications: not fully specified (N-terminus); cysteine pairing not given here; also: fused to GST, GST carrier and linker letters not given here
